# US20110123676A1, “ENZYMATIC TREATMENT OF A PROTEINACEOUS SUBSTRATE BY ENZYMATIC REMOVAL OF FREE THIOLS” (priority 2008, published 2011)
# Entries after “also recorded” stand apart in the source; their conditions may differ.
# Key:
# tyrosinase = assay: Tyrosinase spot assay and test of inhibition (skimmed milk); type: biochemical, Hypocrea jecorina; details: activity spot test, cysteine and enzyme in contact about 1 min before adding the substrate
# Description: Tyrosinase Spot Assay and Test of Inhibition Spot assay of tyrosinase activity was determined by adding 11 nkat of tyrosinase to 1 ml of skimmed milk. Red colour formation within 5-10 seconds is an indication of high of tyrosinase activity. To test for tyrosinase inhibition, either the inhibitor is mixed with tyrosinase before addition to the milk or the inhibitor is added to the milk prior to tyrosinase addition. The inhibitors tested were free cysteine at final concentrations of 1 or 0.1 mM or meat extracts diluted 10 times in the final sample.
# myosin [1] = assay: SDS-PAGE analysis of protein cross-linking, pork extract; type: biochemical; details: for protein cross-linking (SDS-PAGE): treatment with the named enzyme alone, vs reference
# Description: (§1) Protein Extractions: • 1. Brine was made using 2% NaCl and 0.3% STPP • 2. 20 g portions of meat were placed in 250 ml baffled shake flasks • 3. 60 ml of brine were added to each shake flask. • 4. The shake flasks were placed on a rotary shaker (Certomat R, Braun Int.); 120 min at room temperature and 180 rpm • 5. The meat-brine suspension was centrifuged for 60 min at 10000 g and 5° C. • 6. The fat particles were removed by filtering the supernatant through a 0.8 mm grid • 7. The meat-protein extract (supernatant) was stored at −18° C. Dialysis was carried out in Slide-A-Lyzer Dialysis Cassette from Pierce (Order nr: 66810). The dialysis was carried out at 4° C. overnight with one shift of dialysis buffer. Sample Preparation/Enzyme Treatment for SDS-PAGE Analysis Enzyme treatment of the protein extracts prior to SDS-PAGE analysis was done as follows: Tyrosinase was added to a final concentration of 15.5 nkat/ml extract (corresponding to 0.015 mg tyrosinase per ml extract) and incubated for 60 min at 40° C. TGase was added to a final concentration of 2.5 nkat/ml extract (corresponding to 0.015 mg TGase pr. ml extract) and incubated for 60 min at 40° C. sulfhydryl oxidase was added to a final concentration of 0.0033 (low sulfhydryl oxidase) or 0.033 (high sulfhydryl oxidase) nkat/ml. It was always added prior to or simultaneously with other enzyme treatment. If added prior to other enzyme treatment, an incubation time of 60 min at room temperature was applied. SDS-Page Analysis: SDS-PAGE was carried out on Pre-cast Novex Bis-Tris gels (Invitrogen, Carlsbad Calif., USA) according to manufacturers' protocol. For non-reducing SDS-PAGE, DTT was left out of the sample buffer.
# myosin [2] = assay: SDS-PAGE analysis of protein cross-linking, beef extract; type: biochemical; details: for protein cross-linking (SDS-PAGE): treatment with the named enzyme alone, vs reference
# Description: as §1, with “C.” for “C. Dialysis was carried out in Slide-A-Lyzer Dialysis Cassette from Pierce (Order nr: 66810). The dialysis was carried out at 4° C. overnight with one shift of dialysis buffer.”
# myosin [3] = assay: SDS-PAGE analysis of protein cross-linking, turkey extract; type: biochemical; details: treatment with the named enzyme alone, vs reference
# Description: as §1, with “C.” for “C. Dialysis was carried out in Slide-A-Lyzer Dialysis Cassette from Pierce (Order nr: 66810). The dialysis was carried out at 4° C. overnight with one shift of dialysis buffer.”, “SDS-Page Analysis: SDS-PAGE was carried out on Pre-cast Novex Bis-Tris gels (Invitrogen, Carlsbad Calif., USA) according to manufacturers' protocol. For non-reducing SDS-PAGE, DTT was left out of the sample buffer.” left out
# myosin [4] = assay: SDS-PAGE analysis of protein cross-linking, chicken extract; type: biochemical; details: treatment with the named enzyme alone, vs reference
# Description: as §1, with “C.” for “C. Dialysis was carried out in Slide-A-Lyzer Dialysis Cassette from Pierce (Order nr: 66810). The dialysis was carried out at 4° C. overnight with one shift of dialysis buffer.”, “SDS-Page Analysis: SDS-PAGE was carried out on Pre-cast Novex Bis-Tris gels (Invitrogen, Carlsbad Calif., USA) according to manufacturers' protocol. For non-reducing SDS-PAGE, DTT was left out of the sample buffer.” left out
# myosin [5] = assay: SDS-PAGE analysis of protein cross-linking, lamb extract; type: biochemical; details: treatment with the named enzyme alone, vs reference
# Description: as §1, with “C.” for “C. Dialysis was carried out in Slide-A-Lyzer Dialysis Cassette from Pierce (Order nr: 66810). The dialysis was carried out at 4° C. overnight with one shift of dialysis buffer.”, “SDS-Page Analysis: SDS-PAGE was carried out on Pre-cast Novex Bis-Tris gels (Invitrogen, Carlsbad Calif., USA) according to manufacturers' protocol. For non-reducing SDS-PAGE, DTT was left out of the sample buffer.” left out
# myosin [6] = assay: SDS-PAGE analysis of protein cross-linking, cod extract; type: biochemical; details: treatment with the named enzyme alone, vs reference
# Description: as §1, with “C.” for “C. Dialysis was carried out in Slide-A-Lyzer Dialysis Cassette from Pierce (Order nr: 66810). The dialysis was carried out at 4° C. overnight with one shift of dialysis buffer.”, “SDS-Page Analysis: SDS-PAGE was carried out on Pre-cast Novex Bis-Tris gels (Invitrogen, Carlsbad Calif., USA) according to manufacturers' protocol. For non-reducing SDS-PAGE, DTT was left out of the sample buffer.” left out
# [7] = according to supplier; cited from earlier work
# [8] = Tyrosinase activity (nkat); type: biochemical; details: enzyme used in the examples
# Description: One unit of tyrosinase activity—1 nkat is defined as the amount of enzyme that converts 1 nmol of L-DOPA into DOPA-quinone pr. second at pH 7 and 25° C.
# [9] = according to supplier; cited from earlier work; remark: listed apart in the source
Molecule,protein cross-linking (SDS-PAGE) (myosin [1]; pork extract),protein cross-linking (SDS-PAGE) (myosin [2]),protein cross-linking (SDS-PAGE) (myosin [3]),protein cross-linking (SDS-PAGE) (myosin [4]),protein cross-linking (SDS-PAGE) (myosin [5]),protein cross-linking (SDS-PAGE) (myosin [6]),other results
N[C@@H](CS)C(=O)O [cysteine],–,–,–,–,–,–,cysteine concentration giving inhibition of the tyrosinase (tyrosinase): above 10 μM; cysteine concentration giving inhibition of the tyrosinase (tyrosinase; listed as free cysteine): about 10 μM
"O=P(O)(O)OP(=O)(O)OP(=O)(O)O [STPP, Sodium tripolyphosphate]",–,–,–,–,–,–,effect of removing STPP on tyrosinase cross-linking (SDS-PAGE) (myosin [1]; pork extract dialysed against a solution free of STPP): no further efficiency of tyrosinase cross-linking was observed
[Cu] [copper],–,–,–,–,–,–,"effect of extra copper on tyrosinase activity (myosin [1]; pork extract, results not shown): did not seem to enhance tyrosinase activity"
"TGase: TGase (Activa MP; Ajinomoto), well-known protein cross-linking enzyme used as positive reference (protein, UniProt P81453 77-407, looked up) Protein-glutamine …: DSDDRVTPPAEPLDRMPDPYRPSYGRAETVVNNYIRKWQQVYSHRDGRKQQMTEEQREWLSYGCVGVTWVNSGQYPTNRLAFASFDEDRFKNELKNGRPRSGETRAEFEGRVAKESFDEEKGFQRAREVASVMNRALENAHDESAYLDNLKKELANGNDALRNEDARSPFYSALRNTPSFKERNGGNHDPSRMKAVIYSKHFWSGQDRSSSADKRKYGDPDAFRPAPGTGLVDMSRDRNIPRSPTSPGEGFVNFDYGWFGAQTEADADKTVWTHGNHYHAPNGSLGAMHVYESKFRNWSEGYSDFDRGAYVITFIPKSWNTAPDKVKQGWP",efficient,efficient,efficient,efficient,efficient,efficient,TGase activity [7]: 1666 nkat/g
"TrTyr2: Tyrosinase (TrTyr2; VTT, Finland); tyrosinase 2 of Hypocrea jecorina, derived from SEQ ID NO 2 (protein, listed as Hypocrea jecorina, signal peptide cleaved) MLLSASLSALALATVSLAQGTTHIPVTGVPVSPGAAVPLRQNINDLAKSGPQWDLYVQAMYNMSKMDSHDPYSFFQIAGIHGAPYIEYNKAGAKSGDGWLGYCPHGEDLFISWHRPYVLLFEQALVSVAKGIANSYPPSVRAKYQAAAASLRAPYWDWAADSSVPAVTVPQTLKINVPSGSSTKTVDYTNPLKTYYFPRMSLTGSYGEFTGGGNDHTVRCAASKQSYPATANSNLAARPYKSWIYDVLTNSQNFADFASTSGPGINVEQIHNAIHWDGACGSQFLAPDYSGFDPLFFMHHAQVDRMWAFWEAIMPSSPLFTASYKGQSRFNSKSGSTITPDSPLQPFYQANGKFHTSNTVKSIQGMGYSYQGIEYWQKSQAQIKSSVTTIINQLYGPNSGKKRNAPRDFLSDIVTDVENLIKTRYFAKISVNVTEVTVRPAEINVYVGGQKAGSLIVMKLPAEGTVNGGFTIDNPMQSILHGGLRNAVQAFTEDIEVEILSKDGQAIPLETVPSLSIDLEVANVTLPSALDQLPKYGQRSRHRAKAAQRGHRFAVPHIPPL",no cross-linking seems to take place,indicating protein cross-linking,varying degrees of myosin-band fading,varying degrees of myosin-band fading; also recorded: least extensive fading of the myosin band,varying degrees of myosin-band fading; also recorded: least extensive fading of the myosin band,the myosin band disappears entirely; also recorded: fading of the myosin band is most pronounced,"specific activity [8]: about 300 nkat/mg; tyrosinase activity after dialysis of extract (SDS-PAGE) (myosin [1]; pork extract dialysed against the same solution as used for extraction): rendered the tyrosinase active; tyrosinase activity after dilution of extract (SDS-PAGE) (myosin [1]; ten times dilution of the pork extract prior to tyrosinase treatment, results not shown): rendered the enzyme active; tyrosinase cross-linking with or without sulfhydryl oxidase-treatment (SDS-PAGE) (myosin [2]): able to cross-link proteins; tyrosinase activity [9]: 1067 nkat/ml"
